We go through three substances from patent US20030143760A1.

The target in test [1] is PHF-tau (human) (UniProt P10636). Briefly: competition ELISA on PHF-tau captured by polyclonal anti-tau; biotinylated BT2, unlabeled competitor AT120 at 10 ug/ml.
Test [2] has the same target. The test can be described thus: competition ELISA on PHF-tau captured by polyclonal anti-tau; biotinylated BT2, unlabeled competitor BT2 at 10 ug/ml.
For test [3] the target is unchanged. The test can be described thus: competition ELISA on PHF-tau captured by polyclonal anti-tau; biotinylated AT8, unlabeled competitor AT120 at 10 ug/ml. For orientation: An ELISA detects its analyte on a solid surface through an enzyme-linked reagent.
The target is the same in test [4]. The test can be described thus: competition ELISA on PHF-tau captured by polyclonal anti-tau; biotinylated AT8, unlabeled competitor AT8 at 10 ug/ml.
The target of test [5] is affinity-purified human normal tau (human) (UniProt P10636). The test can be described thus: sandwich ELISA: AT120 coated, tau at 40 pg/ml spiked in tau-negative CSF, detection with biotinylated BT2 + HT7.
Test [6] deals with PHF-tau (human) (UniProt P10636). The test is described as above.
The target is the same in test [7]. Briefly: competition ELISA on PHF-tau captured by polyclonal anti-tau; biotinylated AT120, unlabeled competitor AT8 at 10 ug/ml.
The target in test [8] is affinity-purified human normal tau (human) (UniProt P10636). The test can be described thus: sandwich ELISA: AT120 coated, tau at 20 pg/ml spiked in tau-negative CSF, detection with biotinylated BT2 + HT7.
The target in test [9] is PHF-tau (human) (UniProt P10636). The description is as above.
In test [10] the target is affinity-purified human normal tau (human) (UniProt P10636). The test can be described thus: sandwich ELISA: AT120 coated, tau at 80 pg/ml spiked in tau-negative CSF, detection with biotinylated BT2 + HT7.
For test [11], the target named is PHF-tau (human) (UniProt P10636). The description is as above.
Test [12] addresses affinity-purified human normal tau (human) (UniProt P10636). The test can be described thus: sandwich ELISA: AT120 coated, tau at 0 pg/ml (blank), detection with biotinylated BT2 + HT7.
In test [13] the target is PHF-tau (human) (UniProt P10636). The test is described as above.
For test [14] the target is unchanged. Briefly: competition ELISA on PHF-tau captured by polyclonal anti-tau; biotinylated AT120, unlabeled competitor AT120 at 10 ug/ml.
For test [15], the target named is affinity-purified human normal tau (human) (UniProt P10636). The test can be described thus: sandwich ELISA: AT120 coated, tau at 160 pg/ml spiked in tau-negative CSF, detection with biotinylated BT2 + HT7.
In test [16] the target is PHF-tau (human) (UniProt P10636). The test is described as above.
Test [17] deals with affinity-purified human normal tau (human) (UniProt P10636). Briefly: sandwich ELISA: AT120 coated, tau at 10 pg/ml spiked in tau-negative CSF, detection with biotinylated BT2 + HT7.
For test [18], the target named is PHF-tau (human) (UniProt P10636). The test is described as above.

With monoclonal antibody BT2, the Absorbance came out at 0.543 absorbance with PHF-tau (human) [1] and 0.054 absorbance in the test with PHF-tau (human) [2].

As to monoclonal antibody AT8, the figures for the Absorbance with PHF-tau (human) [3] and with PHF-tau (human) [4] were 0.372 absorbance and 0.001 absorbance, respectively.

Consider monoclonal antibody AT120, for which the absorbance (milliabsorbance units) (milliabsorbance units) was found to be 678 in test [5]; 566 in the test with PHF-tau (human) [6]; 256 in test [8]; 257 with PHF-tau (human) [9]; 970 in [10]; 901 with PHF-tau (human) [11]. The absorbance (milliabsorbance units) (milliabsorbance units) turned out to be 87 in test [12]; 92 with PHF-tau (human) [13]; 1610 in test [15]; 1680 with PHF-tau (human) [16]; 154 in test [17]; 143 with PHF-tau (human) [18]. The Absorbance is 0.476 absorbance in the test with PHF-tau (human) [7] and 0.001 absorbance with PHF-tau (human) [14].
